Measurements published in patent publication US20160271244A1.

What was measured:
HCV E2 (HCV) = test: Luminex assay, antibody 50 µg/ml
[1] = molecular target: Influenza HA (Wisconsin) (influenza virus); test: Luminex assay, antibody 50 µg/ml
[2] = molecular target: Env (gp120) of HIV-1 7165.18.N160K (HIV-1); test: cell-based or functional assay
[3] = molecular target: Env (gp120) of HIV-1 JRCSF.N160K (HIV-1) (UniProt P20871); test: cell-based or functional assay
[4] = molecular target: Env (gp120) of HIV-1 JRFL.E168K (HIV-1); test: cell-based or functional assay
[5] = molecular target: Env (gp120) of HIV-1 JRFL.N160K.E168K (HIV-1); test: cell-based or functional assay
[6] = molecular target: Env (gp120) of HIV-1 Q23.17.N160K (HIV-1); test: cell-based or functional assay
[7] = molecular target: Env (gp120) of HIV-1 isolate 7165.18 (HIV-1); test: cell-based or functional assay
[8] = molecular target: Env (gp120) of HIV-1 isolate JRCSF (HIV-1) (UniProt P20871); test: cell-based or functional assay
[9] = molecular target: Env (gp120) of HIV-1 isolate JRFL (virus) (HIV-1); test: cell-based or functional assay
[10] = molecular target: Env (gp120) of HIV-1 isolate Q23.17 (HIV-1); test: cell-based or functional assay
Histone [11] = test: Athena autoantigen assay, mAb 25 ug/ml
Jo 1 [12] = test: Athena autoantigen assay, mAb 25 ug/ml
RNP [13] = test: Athena autoantigen assay, mAb 25 ug/ml
SSA [14] = test: Athena autoantigen assay, mAb 25 ug/ml
SSB [15] = test: Athena autoantigen assay, mAb 25 ug/ml
Scl 70 [16] = test: Athena autoantigen assay, mAb 25 ug/ml
Sm [17] = test: Athena autoantigen assay, mAb 25 ug/ml
Histone [18] = test: Athena autoantigen assay, mAb 12.5 ug/ml
Jo 1 [19] = test: Athena autoantigen assay, mAb 12.5 ug/ml
RNP [20] = test: Athena autoantigen assay, mAb 12.5 ug/ml
SSA [21] = test: Athena autoantigen assay, mAb 12.5 ug/ml
SSB [22] = test: Athena autoantigen assay, mAb 12.5 ug/ml
Scl 70 [23] = test: Athena autoantigen assay, mAb 12.5 ug/ml
Sm [24] = test: Athena autoantigen assay, mAb 12.5 ug/ml
Histone [25] = test: Athena autoantigen assay, mAb 6.25 ug/ml
Jo 1 [26] = test: Athena autoantigen assay, mAb 6.25 ug/ml
RNP [27] = test: Athena autoantigen assay, mAb 6.25 ug/ml
SSA [28] = test: Athena autoantigen assay, mAb 6.25 ug/ml
SSB [29] = test: Athena autoantigen assay, mAb 6.25 ug/ml
Scl 70 [30] = test: Athena autoantigen assay, mAb 6.25 ug/ml
Sm [31] = test: Athena autoantigen assay, mAb 6.25 ug/ml
[32] = molecular target: gp120 (Table 2, strain not given); test: Luminex bead assay
Histone [33] = test: Athena autoantigen assay, mAb 50 ug/ml
Jo 1 [34] = test: Athena autoantigen assay, mAb 50 ug/ml
SSA [35] = test: Athena autoantigen assay, mAb 50 ug/ml
SSB [36] = test: Athena autoantigen assay, mAb 50 ug/ml
JRFL gp140 (HIV-1) [37] = test: SPR, MAb on the surface, Env injected; JRFFL wt (not deglycosylated)
[38] = molecular target: deglycosylated JRFL gp140 CF (HIV-1); test: SPR, MAb on the surface, Env injected; JRFL wt DEG 5 (PNGase 5 U/µg)
[39] = molecular target: deglycosylated JRFL gp140 CF (HIV-1); test: SPR, MAb on the surface, Env injected; JRFL wt DEG 20 (PNGase 20 U/µg)
[40] = molecular target: deglycosylated JRFL gp140 CF (HIV-1); test: SPR, MAb on the surface, Env injected; JRFL wt DEG 500 (PNGase 500 U/µg)
JRFL gp140 (HIV-1) [41] = test: SPR, MAb on the surface, Env injected; JRFFL wt (not deglycosylated); Koff (x10^-3 s-1)
[42] = molecular target: deglycosylated JRFL gp140 CF (HIV-1); test: SPR, MAb on the surface, Env injected; JRFL wt DEG 5 (PNGase 5 U/µg); Koff (x10^-3 s-1)
[43] = molecular target: membrane conjugated gp41-inter; test: SPR, gp41-inter held by Ni on liposomes captured on the chip, mAb injected; bivalent analyte fit [right panel]
JRFL gp140 (HIV-1) [44] = test: SPR, MAb on the surface, Env injected; JRFFL wt (not deglycosylated); Kon (x10^3 M-1s-1)
[45] = molecular target: deglycosylated JRFL gp140 CF (HIV-1); test: SPR, MAb on the surface, Env injected; JRFL wt DEG 5 (PNGase 5 U/µg); Kon (x10^3 M-1s-1)
[46] = molecular target: deglycosylated JRFL gp140 CF (HIV-1); test: SPR, MAb on the surface, Env injected; JRFL wt DEG 20 (PNGase 20 U/µg); Koff (x10^-3 s-1)
[47] = molecular target: deglycosylated JRFL gp140 CF (HIV-1); test: SPR, MAb on the surface, Env injected; JRFL wt DEG 20 (PNGase 20 U/µg); Kon (x10^3 M-1s-1)
[48] = molecular target: deglycosylated JRFL gp140 CF (HIV-1); test: SPR, MAb on the surface, Env injected; JRFL wt DEG 500 (PNGase 500 U/µg); Koff (x10^-3 s-1)
[49] = molecular target: deglycosylated JRFL gp140 CF (HIV-1); test: SPR, MAb on the surface, Env injected; JRFL wt DEG 500 (PNGase 500 U/µg); Kon (x10^3 M-1s-1)

Sequence of SSB (P05455 whole entry): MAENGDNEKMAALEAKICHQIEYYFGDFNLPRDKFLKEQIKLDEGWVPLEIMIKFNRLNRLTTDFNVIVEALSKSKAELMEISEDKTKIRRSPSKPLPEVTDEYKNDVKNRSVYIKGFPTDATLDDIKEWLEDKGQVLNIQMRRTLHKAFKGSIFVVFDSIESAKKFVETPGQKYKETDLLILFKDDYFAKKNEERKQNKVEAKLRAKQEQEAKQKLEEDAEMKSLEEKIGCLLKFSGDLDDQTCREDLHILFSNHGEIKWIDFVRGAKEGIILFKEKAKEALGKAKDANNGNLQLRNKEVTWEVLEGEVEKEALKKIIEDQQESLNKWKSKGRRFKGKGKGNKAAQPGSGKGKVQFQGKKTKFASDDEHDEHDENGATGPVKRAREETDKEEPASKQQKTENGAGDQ
Sequence of Jo 1 (P12081 2-509): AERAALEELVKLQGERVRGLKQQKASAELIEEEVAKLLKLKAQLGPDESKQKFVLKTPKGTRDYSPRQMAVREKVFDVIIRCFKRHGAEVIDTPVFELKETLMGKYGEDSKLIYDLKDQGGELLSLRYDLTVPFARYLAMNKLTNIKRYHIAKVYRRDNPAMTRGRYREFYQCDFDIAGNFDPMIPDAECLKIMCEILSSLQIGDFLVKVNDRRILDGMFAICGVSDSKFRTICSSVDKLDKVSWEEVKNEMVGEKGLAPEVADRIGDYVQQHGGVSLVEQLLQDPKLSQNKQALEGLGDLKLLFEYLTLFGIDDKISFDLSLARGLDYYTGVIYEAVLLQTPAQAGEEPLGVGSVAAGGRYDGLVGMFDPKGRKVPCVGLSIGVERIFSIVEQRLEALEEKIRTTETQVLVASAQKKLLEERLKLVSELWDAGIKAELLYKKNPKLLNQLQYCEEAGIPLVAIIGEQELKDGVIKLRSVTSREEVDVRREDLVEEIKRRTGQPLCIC

CH04 (antibody) was tested, and the background subtracted RFUs (HCV E2 (HCV)) was 0.5 RFU and the background subtracted RFUs [1] was 2.5 RFU.
With PG16 (antibody) the IC50 (virus neutralization) [2] was greater than 50 µg/mL, the IC80 (virus neutralization) [2] was greater than 50 µg/mL and the IC50 (virus neutralization) [3] was greater than 50 µg/mL. For the same substance, the IC80 (virus neutralization) [3] was greater than 50 µg/mL, the IC50 (virus neutralization) [4] was 0.003 µg/mL and the IC80 (virus neutralization) [4] was 0.015 µg/mL. The IC50 (virus neutralization) [5] was greater than 50 µg/mL, the IC80 (virus neutralization) [5] was greater than 50 µg/mL and the IC50 (virus neutralization) [6] was greater than 50 µg/mL. For the same substance, the IC80 (virus neutralization) [6] was greater than 50 µg/mL, the IC50 (virus neutralization) [7] was 11.8 µg/mL and the IC80 (virus neutralization) [7] was greater than 50 µg/mL. For the same substance, the IC50 (virus neutralization) [8] was 0.003 µg/mL, the IC80 (virus neutralization) [8] was 0.012 µg/mL and the IC50 (virus neutralization) [9] was greater than 50 µg/mL. The IC80 (virus neutralization) [9] was greater than 50 µg/mL, the IC50 (virus neutralization) [10] was 0.001 µg/mL and the IC80 (virus neutralization) [10] was 0.003 µg/mL. The background subtracted RFUs (HCV E2 (HCV)) was 0 RFU and the background subtracted RFUs [1] was 0 RFU.
Substance CH02 (antibody) has a background subtracted RFUs (HCV E2 (HCV)) of 333 RFU, a background subtracted RFUs [1] of 0.3 RFU and an Athena autoreactivity score (Histone [11]) of 11.5. The Athena autoreactivity score (Jo 1 [12]) was 1.5, the Athena autoreactivity score (RNP [13]) was 9 and the Athena autoreactivity score (SSA [14]) was 6. The Athena autoreactivity score (SSB [15]) was 4.5, the Athena autoreactivity score (Scl 70 [16]) was 2 and the Athena autoreactivity score (Sm [17]) was 3. For the same substance, the Athena autoreactivity score (Histone [18]) was 8.5, the Athena autoreactivity score (Jo 1 [19]) was 1 and the Athena autoreactivity score (RNP [20]) was 6. It also gave an Athena autoreactivity score (SSA [21]) of 5, an Athena autoreactivity score (SSB [22]) of 3.5 and an Athena autoreactivity score (Scl 70 [23]) of 1.5. For the same substance, the Athena autoreactivity score (Sm [24]) was 2.5, the Athena autoreactivity score (Histone [25]) was 7 and the Athena autoreactivity score (Jo 1 [26]) was 1.5. It also gave an Athena autoreactivity score (RNP [27]) of 5, an Athena autoreactivity score (SSA [28]) of 5 and an Athena autoreactivity score (SSB [29]) of 5. The Athena autoreactivity score (Scl 70 [30]) was 2 and the Athena autoreactivity score (Sm [31]) was 2.5.
1b12 original (antibody) showed a Reactivity in Luminex Units (Luminex units) [32] of 5110.
4E10 (antibody) was tested, and the background subtracted RFUs (HCV E2 (HCV)) was 89.2 RFU, the background subtracted RFUs [1] was 0 RFU and the Athena autoreactivity score (Histone [11]) was 274. For the same substance, the Athena autoreactivity score (Jo 1 [12]) was 138, the Athena autoreactivity score (RNP [13]) was 15 and the Athena autoreactivity score (SSA [14]) was 247. For the same substance, the Athena autoreactivity score (SSB [15]) was 206, the Athena autoreactivity score (Scl 70 [16]) was 4 and the Athena autoreactivity score (Sm [17]) was 7. It also gave an Athena autoreactivity score (Histone [33]) of 333, an Athena autoreactivity score (Jo 1 [34]) of 156 and an Athena autoreactivity score (SSA [35]) of 306. It also gave an Athena autoreactivity score (SSB [36]) of 254, an Athena autoreactivity score (Histone [18]) of 160 and an Athena autoreactivity score (Jo 1 [19]) of 87. For the same substance, the Athena autoreactivity score (RNP [20]) was 9, the Athena autoreactivity score (SSA [21]) was 169 and the Athena autoreactivity score (SSB [22]) was 124. For the same substance, the Athena autoreactivity score (Scl 70 [23]) was 3, the Athena autoreactivity score (Sm [24]) was 5 and the Athena autoreactivity score (Histone [25]) was 113. For the same substance, the Athena autoreactivity score (Jo 1 [26]) was 65, the Athena autoreactivity score (RNP [27]) was 6 and the Athena autoreactivity score (SSA [28]) was 115. The Athena autoreactivity score (SSB [29]) was 93, the Athena autoreactivity score (Scl 70 [30]) was 2 and the Athena autoreactivity score (Sm [31]) was 4. It also gave a Kd (JRFL gp140 (HIV-1) [37]) of 2200 nM, a Kd [38] of 135 nM and a Kd [39] of 40 nM. It also gave a Kd [40] of 50 nM, a koff (JRFL gp140 (HIV-1) [41]) of 0.0013 s⁻¹ and a koff [42] of 0.001 s⁻¹. For the same substance, the Kd [43] was 0.73 nM, the koff [43] was 2.5e-05 s⁻¹ and the kon (JRFL gp140 (HIV-1) [44]) was 600 M⁻¹ s⁻¹. For the same substance, the kon [45] was 7400 M⁻¹ s⁻¹, the koff [46] was 0.00099 s⁻¹ and the kon [47] was 27000 M⁻¹ s⁻¹. It also gave a koff [48] of 0.001 s⁻¹ and a kon [49] of 21000 M⁻¹ s⁻¹.
